According to patent publication US20110129476A1 (MAX PLANCK GESELLSCHAFT ZUR FORDERUNG DER WISSENSCHAFTEN E V, published 2011):

Tests used:
[1] = target: RACK1 (receptor for activated C kinase 1), endogenous protein of murine K46 B cells (mouse, UniProt P68040 1-317); experiment: reciprocal co-immunoprecipitation (α-RACK1; α-MZB1 5C11 Sepharose) from membrane and cytosolic fractions of K46 B cells, immunoblot
[2] = target: T1, ERp57, endogenous protein of murine K46 B cells (mouse, UniProt P27773 25-505); experiment: formaldehyde crosslinking, α-MZB1 immunoprecipitation and mass spectrometry; co-immunoprecipitation of endogenous proteins from K46 extracts
T1 sequence (looked up): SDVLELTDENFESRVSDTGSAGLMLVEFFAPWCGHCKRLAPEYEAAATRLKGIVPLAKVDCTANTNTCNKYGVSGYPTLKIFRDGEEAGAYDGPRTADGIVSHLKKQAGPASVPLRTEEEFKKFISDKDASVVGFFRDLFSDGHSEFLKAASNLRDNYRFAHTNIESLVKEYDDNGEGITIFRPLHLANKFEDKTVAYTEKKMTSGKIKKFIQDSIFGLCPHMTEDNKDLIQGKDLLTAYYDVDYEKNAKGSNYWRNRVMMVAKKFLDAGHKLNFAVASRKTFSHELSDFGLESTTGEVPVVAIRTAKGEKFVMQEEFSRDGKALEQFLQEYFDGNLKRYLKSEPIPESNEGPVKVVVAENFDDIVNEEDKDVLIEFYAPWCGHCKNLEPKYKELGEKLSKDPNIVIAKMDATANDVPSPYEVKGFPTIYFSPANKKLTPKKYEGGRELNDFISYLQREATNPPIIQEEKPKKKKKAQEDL
Description: (§1) Approximately […] of K46 mature B cells were cultured until reaching the exponential growth phase, harvested and in vivo formaldehyde crosslinking was performed by adding 1% formaldehyde (final concentration) directly to the K46 cell culture. Cells were incubated for 10 min at 37° C. and 5% CO₂ and the crosslinking reaction was quenched by addition of 2.5M glycine with a final concentration of 125 mM. After crosslinking, cells were collected, washed with ice-cold PBS and frozen at −80° C. prior to lysis. […] The immunoprecipitated proteins were eluted with sample buffer and separated on a 4%-12% gradient SDS-PAGE. The gel was silver stained. The marked bands (arrow) were cut out and prepared for mass spectrometry analysis.

[3] = target: GRP94 (Endoplasmin), endogenous protein of murine K46 B cells (mouse, UniProt P08113 22-802); experiment: as above
GRP94 (Endoplasmin), endogenous protein of murine K46 B cells, sequence (P08113 22-802 limits assumed): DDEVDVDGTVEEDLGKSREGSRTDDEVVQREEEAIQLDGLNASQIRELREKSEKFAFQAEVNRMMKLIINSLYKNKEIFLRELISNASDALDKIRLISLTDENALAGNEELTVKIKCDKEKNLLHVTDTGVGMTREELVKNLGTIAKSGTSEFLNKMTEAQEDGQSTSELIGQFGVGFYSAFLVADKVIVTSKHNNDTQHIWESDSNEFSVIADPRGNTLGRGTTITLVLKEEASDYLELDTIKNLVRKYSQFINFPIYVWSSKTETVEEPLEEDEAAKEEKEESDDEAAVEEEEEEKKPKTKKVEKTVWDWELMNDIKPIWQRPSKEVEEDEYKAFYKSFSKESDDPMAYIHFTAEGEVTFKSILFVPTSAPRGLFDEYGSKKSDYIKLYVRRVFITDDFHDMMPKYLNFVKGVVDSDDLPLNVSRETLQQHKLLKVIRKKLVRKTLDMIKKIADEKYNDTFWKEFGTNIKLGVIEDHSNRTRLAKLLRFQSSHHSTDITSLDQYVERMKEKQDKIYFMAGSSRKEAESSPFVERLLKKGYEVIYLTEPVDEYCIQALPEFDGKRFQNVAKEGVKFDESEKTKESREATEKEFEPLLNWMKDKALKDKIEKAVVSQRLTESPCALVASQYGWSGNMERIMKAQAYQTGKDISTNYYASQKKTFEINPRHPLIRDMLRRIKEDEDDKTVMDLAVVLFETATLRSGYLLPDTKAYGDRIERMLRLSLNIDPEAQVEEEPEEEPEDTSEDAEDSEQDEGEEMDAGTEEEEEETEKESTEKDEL
Description: as §1

[4] = target: T2, ERp44, endogenous protein of murine K46 B cells (mouse, UniProt Q9D1Q6 30-406); experiment: as above
T2 sequence (looked up): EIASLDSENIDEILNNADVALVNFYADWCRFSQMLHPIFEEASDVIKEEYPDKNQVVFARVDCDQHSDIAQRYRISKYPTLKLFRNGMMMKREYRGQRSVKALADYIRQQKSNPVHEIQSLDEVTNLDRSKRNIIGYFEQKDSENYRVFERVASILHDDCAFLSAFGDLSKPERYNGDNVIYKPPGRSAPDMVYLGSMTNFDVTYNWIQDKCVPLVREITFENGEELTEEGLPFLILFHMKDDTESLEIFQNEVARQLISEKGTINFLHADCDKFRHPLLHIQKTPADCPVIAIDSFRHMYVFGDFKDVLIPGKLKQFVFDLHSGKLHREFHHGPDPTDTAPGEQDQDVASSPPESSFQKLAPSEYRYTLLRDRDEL
Description: as §1

Measured: binding result

B1: MZB1 (marginal zone B1 B cell factor 1), endogenous protein of murine K46 mature B cells (other)
chain: GDRVSLSASAPTLDDEEKYSAHMPAHLRCDACRAVAFQMGQRLAKAEAKSHTPDASGLQELSESTYTDVLDQTCSQNWQSYGVHEVNQMKRLTGPGLSKGPEPRISVMISGGPWPNRLSKTCFHYLGEFGEDQIYEAYRQGQANLEALLCGGTHGPCSQEILAQREEL
notes: Endogenous protein in K46 cell extracts (whole cell, membrane or cytosolic fraction); also called AL1
binds: all assays above
